According to patent US20100310640A1:

Tests used:
Experiment in all cases: radiolabeled-peptide inhibition, purified HLA-DR
Details in all cases: remark: other sources report otherwise
[1] = biological target: T1, HLA-DR DRB1*0401 (human)
T1 chain 1: not shown
T1 chain 2: not shown

[2] = biological target: HLA-DR DRB1*1501 (human)
[3] = biological target: T2, HLA-DR DRB1*0701 (human)
T2 chain 1: not shown
T2 chain 2: not shown

[4] = biological target: T3, HLA-DR DRB1*0101 (human)
T3 chain 1: not shown
T3 chain 2: not shown

[5] = biological target: T4, HLA-DR DRB1*0404 (human)
T4 chain 1: not shown
T4 chain 2: not shown

[6] = biological target: T5, HLA-DR DRB4*0101 (human)
T5 chain 1: not shown
T5 chain 2: not shown

[7] = biological target: T6, HLA-DR DRB1*1101 (human)
T6 chain 1: not shown
T6 chain 2: not shown

## SLTLQGLGISWLGLR [9019.0055]
[1]
  IC50: 143 nM
[2]
  IC50: 50 nM
[3]
  IC50: 3100 nM
[4]
  IC50: 93 nM
[5]
  IC50: 110 nM
[6]
  IC50: 22 nM
[7]
  IC50: 6310 nM
